Data reported in patent US10098865B2, “Multi-arm polymeric prodrug conjugates of taxane-based compounds” (Nektar Therapeutics, priority 2010, dated 2018).

Test: Maximum Tolerated Dose (MTD) study of d9-docetaxel conjugates in athymic mice
Assay type: in vivo, female athymic nu/nu mice
Settings: for Body Weight Nadir / Body Weight Nadir (day): day of nadir / Treatment-Related Deaths: female athymic nu/nu mice, qwk x 3; for MTD (maximum tolerated dose), estimated: athymic nu/nu mice, qwk×3, iv, dose refers to d9-docetaxel content
Experimental: MTD for 4-arm-PEG20K-CM-glycine-d9-docetaxel and 4-arm-PEG20K-BA-d9-docetaxel were determined in female athymic nu/nu mice using standard methods. For all test compounds, the dose refers to the d9-docetaxel content. d9-Docetaxel solutions were prepared in D5W containing 7.5% Tween 80:7.5% ethanol. PEG-d9-docetaxel conjugates were prepared in D5W. The administration volume for all test articles was 10 mL/kg. Mice were observed daily for clinical signs and body weights were recorded on days 1-5 and then biweekly until the end of study. Any individual animal with a single observation of greater than 30% body weight loss or three consecutive measurements of greater than 25% body weight loss was euthanized. For any group with two measurements of mean body weight loss of greater than 20%, dosing was stopped and recovery was allowed. Within a group with greater than 20% mean weight loss, individual animals greater than 30% body weight loss were euthanized. Compound dosing was terminated for any group in which mean weight loss exceeded 20% or >10% of animals died. Moribund animals were euthanized and all animals were euthanized at end of study.

[1] = 7.5 mg/kg (d9-docetaxel content) iv
[2] = 15 mg/kg (d9-docetaxel content) iv
[3] = 30 mg/kg (d9-docetaxel content) iv
[4] = N=5, 7.5 mg/kg (d9-docetaxel content) iv
[5] = N=5, 15 mg/kg (d9-docetaxel content) iv
[6] = N=5, 30 mg/kg (d9-docetaxel content) iv

Row | Compound | Body Weight Nadir (25 mg/kg iv) | Body Weight Nadir (day): day of nadir (25 mg/kg iv) | Treatment-Related Deaths (N=5, 25 mg/kg iv) | MTD (maximum tolerated dose), estimated | Body Weight Nadir [1] | Body Weight Nadir (day): day of nadir [1] | Body Weight Nadir [2] | Body Weight Nadir (day): day of nadir [2] | Body Weight Nadir [3] | Body Weight Nadir (day): day of nadir [3] | Treatment-Related Deaths [4] | Treatment-Related Deaths [5] | Treatment-Related Deaths [6]
1 | [2H]C([2H])([2H])C(OC(=O)N[C@@H](c1ccccc1)[C@@H](O)C(=O)O[C@H]1C[C@@]2(O)[C@@H](OC(=O)c3ccccc3)C3C(C)(C(=O)[C@H](O)C(=C1C)C2(C)C)[C@@H](O)CC1OC[C@]13OC(C)=O)(C([2H])([2H])[2H])C([2H])([2H])[2H] (stereo partly drawn) [Docetaxel-d9, d9-Docetaxel] | −17.7% | 21 days | 0 | – | – | – | – | – | – | – | – | – | –
2 | 4-ARM-PEG20K-Glycinate-Linked d9-Docetaxel Conjugate [4ARM-PEG20K-CM-GLY-d9-DOC] | – | – | – | 20 mg/kg | −1.6% | 2 days | −4.2% | 10 days | −25.2% | 21 days | 0 | 0 | 0
3 | 4-ARM-PEG20K-Butanoate-Linked d9-Docetaxel Conjugate [4ARM-PEG20K-BA-d9-DOC] | – | – | – | 20 mg/kg | −0.6% | 2 days | – | – | −21.0% | 21 days | 0 | 0 | 0
